Measured values reported in paper PMC11098746 (2024).

B1: ADP299 (protein)
chain: MDLRQFLMCLSLCTAFALSKPTEKKDRVHHEPQLSDKVHNDAQSFDYDHDAFLGAEEAKTFDQLTPEESKERLGKIVSKIDGDKDGFVTVDELKDWIKFAQKRWIYEDVERQWKGHDLNEDGLVSWEEYKNATYGYVLDDPDPDDGFNYKQMMVRDERRFKMADKDGDLIATKEEFTAFLHPEEYDYMKDIVVQETMEDIDKNADGFIDLEEYIGDMYSHDGNTDEPEWVKTEREQFVEFRDKNRDGKMDKEETKDWILPSDYDHAEAEARHLVYESDQNKDGKLTKEEIVDKYDLFVGSQATDFGEALVRHDEF
modifications: bait human Fc-tagged dimer
B2: ADP332 (protein)
chain: MAPPGRRECPFPSWRFPGLLLAAMVLLLYSFSDACEEPPTFEAMELIGKPKPYYEIGERVDYKCKKGYFYIPPLATHTICDRNHTWLPVSDDACYRETCPYIRDPLNGQAVPANGTYEFGYQMHFICNEGYYLIGEEILYCELKGSVAIWSGKPPICEKVLCTPPPKIKNGKHTFSEVEVFEYLDAVTYSCDPAPGPDPFSLIGESTIYCGDNSVWSRAAPECKVVKCRFPVVENGKQISGFGKKFYYKATVMFECDKGFYLDGSDTIVCDSNSTWDPPVPKCLKVLPPSSTKPPALSHSVSTSSTTKSPASSASGPRPTYKPPVSNYPGYPKPEEGILDSLDV
modifications: bait human Fc-tagged dimer
B3: ADP368 (protein)
chain: MERASCLLLLLLPLVHVSATTPEPCELDDEDFRCVCNFSEPQPDWSEAFQCVSAVEVEIHAGGLNLEPFLKRVDADADPRQYADTVKALRVRRLTVGAAQVPAQLLVGALRVLAYSRLKELTLEDLKITGTMPPLPLEATGLALSSLRLRNVSWATGRSWLAELQQWLKPGLKVLSIAQAHSPAFSCEQVRAFPALTSLDLSDNPGLGERGLMAALCPHKFPAIQNLALRNTGMETPTGVCAALAAAGVQPHSLDLSHNSLRATVNPSAPRCMWSSALNSLNLSFAGLEQVPKGLPAKLRVLDLSCNRLNRAPQPDELPEVDNLTLDGNPFLVPGTALPHEGSMN
modifications: bait human Fc-tagged dimer
B4: ADP319 (protein)
chain: MVSSGCRMRSLWFIIVISFLPNTEGFSRAALPFGLVRRELSCEGYSIDLRCPGSDVIMIESANYGRTDDKICDADPFQMENTDCYLPDAFKIMTQRCNNRTQCIVVTGSDVFPDPCPGTYKYLEVQYECVPYIFVCPGTLKAIVDSPCIYEAEQKAGAWCKDPLQAADKIYFMPWTPYRTDTLIEYASLEDFQNSRQTTTYKLPNRVDGTGFVVYDGAVFFNKERTRNIVKFDLRTRIKSGEAIINYANYHDTSPYRWGGKTDIDLAVDENGLWVIYATEQNNGMIVISQLNPYTLRFEATWETVYDKRAASNAFMICGVLYVVRSVYQDNESETGKNSIDYIYNTRLNRGEYVDVPFPNQYQYIAAVDYNPRDNQLYVWNNNFILRYSLEFGPPDPAQVPTTAVTITSSAELFKTIISTTSTTSQKGPMSTTVAGSQEGSKGTKPPPAVSTTKIPPITNIFPLPERFCEALDSKGIKWPQTQRGMMVERPCPKGTRGTASYLCMISTGTWNPKGPDLSNCTSHWVNQLAQKIRSGENAASLANELAKHTKGPVFAGDVSSSVRLMEQLVDILDAQLQELKPSEKDSAGRSYNKLQKREKTCRAYLKAIVDTVDNLLRPEALESWKHMNSSEQAHTATMLLDTLEEGAFVLADNLLEPTRVSMPTENIVLEVAVLSTEGQIQDFKFPLGIKGAGSSIQLSANTVKQNSRNGLAKLVFIIYRSLGQFLSTENATIKLGADFIGRNSTIAVNSHVISVSINKESSRVYLTDPVLFTLPHIDPDNYFNANCSFWNYSERTMMGYWSTQGCKLVDTNKTRTTCACSHL
modifications: bait human Fc-tagged dimer
B5: ADP395 (protein)
chain: FVNKDQIAKDVKQFYDQALQQAVVDDDANNAKAVVKTFHETLDCCGSSTLTALTTSVLKNNLCPSGSNIISNLFKEDCHQKIDDLFSGK
modifications: bait human Fc-tagged dimer
B6: ADP347 (protein)
chain: MAATLGPLGSWQQWRRCLSARDGSRMLLLLLLLGSGQGPQQVGAGQTFEYLKREHSLSKPYQGVGTGSSSLWNLMGNAMVMTQYIRLTPDMQSKQGALWNRVPCFLRDWELQVHFKIHGQGKKNLHGDGLAIWYTKDRMQPGPVFGNMDKFVGLGVFVDTYPNEEKQQERVFPYISAMVNNGSLSYDHERDGRPTELGGCTAIVRNLHYDTFLVIRYVKRHLTIMMDIDGKHEWRDCIEVPGVRLPRGYYFGTSSITGDLSDNHDVISLKLFELTVERTPEEEKLHRDVFLPSVDNMKLPEMTAPLPPLSGLA
modifications: bait human Fc-tagged dimer
B7: ADP293 (protein)
chain: MALLPRLLLLLLLVFPATVLFRGGPRGLLAVAQDLTEDEETVEDSIIEDEDDEAEVEEDEPTDLVEDKEEEDVSGEPEASPSADTTILFVKGEDFPANNIVKFLVGFTNKGTEDFIVESLDASFRYPQDYQFYIQNFTALPLNTVVPPQRQATFEYSFIPAEPMGGRPFGLVINLNYKDLNGNVFQDAVFNQTVTVIEREDGLDGET
modifications: bait human Fc-tagged dimer
B8: ADP292 (protein)
chain: MARPGSAQRWAAVAGRWGCRLLALLLLVPGPGGASEITFELPDNAKQCFYEDIAQGTKCTLEFQVITGGHYDVDCRLEDPDGKVLYKEMKKQYDSFTFTASKNGTYKFCFSNEFSTFTHKTVYFDFQVGEDPPLFPSENRVSALTQMESACVSIHEALKSVIDYQTHFRLREAQGRSRAEDLNTRVA
modifications: bait human Fc-tagged dimer
B9: ADP269 (protein)
chain: SRHQAPCGPQAFAHAAVAADSKVCSDIGRAILQQQGSPVDATIAALVCTSVVNPQSMGLGGGVIFTIYNVTTGKVEVINARETVPASHAPSLLDQCAQALPLGTGAQWIGVPGELRGYAEAHRRHGRLPWAQLFQPTIALLRGGHVVAPVLSRFLHNSILRPSLQASTLRQLFFNGTEPLRPQDPLPWPALATTLETVATEGVEVFYTGRLGQMLVEDIAKEGSQLTLQDLAKFQPEVVDALEVPLGDYTLYSPPPPAGGAILSFILNVLRGFNFSTESMARPEGRVNVYHHLVETLKFAKGQRWRLGDPRSHPKLQNASRDLLGETLAQLIRQQIDGRGDHQLSHYSLAEAWGHGTGTSHVSVLGEDGSAVAATSTINTPFGAMVYSPRTGIILNNELLDLCERCPRGSGTTPSPAVSGDRVGGAPGRCWPPVPGERSPSSMVPSILINKAQGSKLVIGGAGGELIISAVAQAIMSKLWLGFDLRAAIAAPILHVNSKGCVEYEPNFSQEVQRGLQDRGQNQTQRPFFLNVVQAVSQEGACVYAVSDLRKSGEAAGY
modifications: bait human Fc-tagged dimer
B10: ADP334 (protein)
chain: MASGRDERPPWRLGRLLLLMCLLLLGSSARAAHIKKAEATTTTTSAGAEAAEGQFDRYYHEEELESALREAAAAGLPGLARLFSIGRSVEGRPLWVLRLTAGLGSLIPEGDAGPDAAGPDAAGPLLPGRPQVKLVGNMHGDETVSRQVLIYLARELAAGYRRGDPRLVRLLNTTDVYLLPSLNPDGFERAREGDCGFGDGGPSGASGRDNSRGRDLNRSFPDQFSTGEPPALDEVPEVRALIEWIRRNKFVLSGNLHGGSVVASYPFDDSPEHKATGIYSKTSDDEVFKYLAKAYASNHPIMKTGEPHCPGDEDETFKDGITNGAHWYDVEGGMQDYNYVWANCFEITLELSCCKYPPASQLRQEWENNRESLITLIEKVHIGVKGFVKDSITGSGLENATISVAGINHNITTGRFGDFYRLLVPGTYNLTVVLTGYMPLTVTNVVVKEGPATEVDFSLRPTVTSVIPDTTEAVSTASTVAIPNILSGTSSSYQPIQPKDFHHHHFPDMEIFLRRFANEYPNITRLYSLGKSVESRELYVMEISDNPGVHEPGEPEFKYIGNMHGNEVVGRELLLNLIEYLCKNFGTDPEVTDLVHNTRIHLMPSMNPDGYEKSQEGDSISVIGRNNSNNFDLNRNFPDQFVQITDPTQPETIAVMSWMKSYPFVLSANLHGGSLVVNYPFDDDEQGLATYSKSPDDAVFQQIALSYSKENSQMFQGRPCKNMYPNEYFPHGITNGASWYNVPGGMQDWNYLQTNCFEVTIELGCVKYPLEKELPNFWEQNRRSLIQFMKQVHQGVRGFVLDATDGRGILNATISVAEINHPVTTYKTGDYWRLLVPGTYKITASARGYNPVTKNVTVKSEGAIQVNFTLVRSSTDSNNESKKGKGASSSTNDASDPTTKEFETLIKDLSAENGLESLMLRSSSNLALALYRYHSYKDLSEFLRGLVMNYPHITNLTNLGQSTEYRHIWSLEISNKPNVSEPEEPKIRFVAGIHGNAPVGTELLLALAEFLCLNYKKNPAVTQLVDRTRIVIVPSLNPDGRERAQEKDCTSKIGQTNARGKDLDTDFTNNASQPETKAIIENLIQKQDFSLSVALDGGSMLVTYPYDKPVQTVENKETLKHLASLYANNHPSMHMGQPSCPNKSDENIPGGVMRGAEWHSHLGSMKDYSVTYGHCPEITVYTSCCYFPSAARLPSLWADNKRSLLSMLVEVHKGVHGFVKDKTGKPISKAVIVLNEGIKVQTKEGGYFHVLLAPGVHNIIAIADGYQQQHSQVFVHHDAASSVVIVFDTDNRIFGLP
modifications: bait human Fc-tagged dimer
B11: ADP111 (protein)
chain: MVLLRVLILLLSWAAGMGGQYGNPLNKYIRHYEGLSYNVDSLHQKHQRAKRAVSHEDQFLRLDFHAHGRHFNLRMKRDTSLFSDEFKVETSNKVLDYDTSHIYTGHIYGEEGSFSHGSVIDGRFEGFIQTRGGTFYVEPAERYIKDRTLPFHSVIYHEDDINYPHKYGPQGGCADHSVFERMRKYQMTGVEEVTQIPQEEHAANGPELLRKKRTTSAEKNTCQLYIQTDHLFFKYYGTREAVIAQISSHVKAIDTIYQTTDFSGIRNISFMVKRIRINTTADEKDPTNPFRFPNIGVEKFLELNSEQNHDDYCLAYVFTDRDFDDGVLGLAWVGAPSGSSGGICEKSKLYSDGKKKSLNTGIITVQNYGSHVPPKVSHITFAHEVGHNFGSPHDSGTECTPGESKNLGQKENGNYIMYARATSGDKLNNNKFSLCSIRNISQVLEKKRNNCFVESGQPICGNGMVEQGEECDCGYSDQCKDECCFDANQPEGRKCKLKPGKQCSPSQGPCCTAQCAFKSKSEKCRDDSDCAREGICNGFTALCPASDPKPNFTDCNRHTQVCINGQCAGSICEKYGLEECTCASSDGKDDKELCHVCCMKKMDPSTCASTGSVQWSRHFSGRTITLQPGSPCNDFRGYCDVFMRCRLVDADGPLARLKKAIFSPELYENIAEW
modifications: bait human Fc-tagged dimer
B12: ADP270 (protein)
chain: ALSPKCLDWWQEGPMYQIYPRSFKDSNKDGNGDLKGIQDKLDYITALNIKTVWITSFYKSSLKDFRYGVEDFREVDPIFGTMEDFENLVAAIHDKGLKLIIDFIPNHTSDKHIWFQLSRTRTGKYTDYYIWHDCTHENGKTIPPNNWLSVYGNSSWHFDEVRNQCYFHQFMKEQPDLNFRNPDVQEEIKEILRFWLTKGVDGFSLDAVKFLLEAKHLRDEIQVNKTQIPDTVTQYSELYHDFTTTQVGMHDIVRSFRQTMDQYSTEPGRYRFMGTEAYAESIDRTVMYYGLPFIQEADFPFNNYLSMLDTVSGNSVYEVITSWMENMPEGKWPNWMIGGPDSSRLTSRLGNQYVNVMNMLLFTLPGTPITYYGEEIGMGNIVAANLNESYDINTLRSKSPMQWDNSSNAGFSEASNTWLPTNSDYHTVNVDVQKTQPRSALKLYQDLSLLHANELLLNRGWFCHLRNDSHYVVYTRELDGIDRIFIVVLNFGESTLLNLHNMISGLPAKMRIRLSTNSADKGSKVDTSGIFLDKGEGLIFEHNTKNLLHRQTAFRDRCFVSNRACYSSVLNILYTSC
modifications: bait human Fc-tagged dimer

What follows are binders tested against Circumsporozoite protein (CSP) (Plasmodium falciparum (isolate 3D7), UniProt Q7K740) (assay: AVEXIS screen signal:noise (double-corrected)).
Chain of Circumsporozoite protein (CSP) (Q7K740 19-374): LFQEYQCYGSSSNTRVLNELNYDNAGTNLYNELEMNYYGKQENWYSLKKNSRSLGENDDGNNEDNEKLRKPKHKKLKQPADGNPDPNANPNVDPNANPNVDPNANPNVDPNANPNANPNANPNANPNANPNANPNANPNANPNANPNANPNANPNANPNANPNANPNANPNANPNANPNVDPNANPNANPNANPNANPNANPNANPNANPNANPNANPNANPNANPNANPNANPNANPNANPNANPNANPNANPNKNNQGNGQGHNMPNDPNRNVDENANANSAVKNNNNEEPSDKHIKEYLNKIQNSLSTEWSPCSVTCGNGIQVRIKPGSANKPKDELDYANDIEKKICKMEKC
With B1 the binding score was 1.11.
With B2 the binding score was 0.982.
B3 was tested, and the binding score was 1.29.
With B4 the binding score was 1.9.
Binder B5 has a binding score of 1.84.
Binder B6 has a binding score of 0.741.
With B7 the binding score was 1.28.
With B8 the binding score was 1.08.
B9 was tested, and the binding score was 0.734.
In the case of B10, the binding score is reported as 1.2.
Work on B11 yielded a binding score of 0.777.
B12 gave a binding score of 7.97.
